Measurements reported in the supplement of paper PMC7125110.
± gives the standard error. Variants at the floor of the assay were thinned out.

B1: glmS ribozyme (parent)
chain: AUAAAAGCGCCAGAACUACAGAAAUGUAGUUGACGAGGAGGAGGUUUAUCGAAUUUUCGGCGGAUGCCUCCAAA

Key:
Conditions in all cases: with glucosamine-6-phosphate
glucosamine-6-phosphate [1] = variants of: B1; experiment: self-cleavage kobs at 40 uM GlcN6P; higher = faster cleavage; RNA array
Procedure, shortened: (§1)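 Glucosamine-6-phosphate in HEPES/KCl/Mg(OAc)2 buffer, at 40 μM to 10 mM, was flowed over barcoded ribozyme variants transcribed in situ by E. coli RNA polymerase on sequenced MiSeq chips. Tracking was through a hybridised Cy3 probe at 37 °C. kobs, kcat and KM came from exponential decay fits and weighted Michaelis–Menten fits of normalised per-tile medians.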

glucosamine-6-phosphate [2] = variants of: B1; experiment: self-cleavage kobs at 10000 uM GlcN6P; higher = faster cleavage; RNA array
Procedure, shortened: as §1

glucosamine-6-phosphate [3] = variants of: B1; experiment: self-cleavage kobs at 640 uM GlcN6P; higher = faster cleavage; RNA array
Procedure, shortened: as §1

glucosamine-6-phosphate [4] = variants of: B1; experiment: self-cleavage kobs at 2500 uM GlcN6P; higher = faster cleavage; RNA array
Procedure, shortened: as §1

glucosamine-6-phosphate [5] = variants of: B1; experiment: self-cleavage kobs at 160 uM GlcN6P; higher = faster cleavage; RNA array
Procedure, shortened: as §1

Row | Variant | self-cleavage kobs at 40 uM GlcN6P (glucosamine-6-phosphate [1]) [s⁻¹] | self-cleavage kobs at 10000 uM GlcN6P (glucosamine-6-phosphate [2]) [s⁻¹] | self-cleavage kobs at 640 uM GlcN6P (glucosamine-6-phosphate [3]) [s⁻¹] | self-cleavage kobs at 2500 uM GlcN6P (glucosamine-6-phosphate [4]) [s⁻¹] | self-cleavage kobs at 160 uM GlcN6P (glucosamine-6-phosphate [5]) [s⁻¹]
1 | AUAAAGGCGCCAGAACUACAGAAAUGUAGUUGACGAGGAGGAGGUUUAUAGAAUUUUCGGCGGAUGCCUUCAAA [A6G C50A C70U] | < 1e-05 |  |  |  | 
2 | AUAAAGGGGGCAGAACUACAGAAAUGUAGUUGACGAGGAGGAGGUUUAUCGUAUUUUCGACGGAUGCCUCCAAA [A6G C8G C10G A52U G60A] | < 1e-05 |  |  |  | 
3 | AUAAAGGCGCCAGAACUACAGAAAUGUAGUUGACGAGGAGGAGGUUUAUCGACUUUUAGGAGGAUGCCUCCAAA [A6G A53C C58A C61A] | < 1e-05 | < 1e-05 |  |  | 
4 | AUAAAGGCGCCAGAAUUACAGAAAUGUAGUUCACGAGGAGUAGGUUUAUCGAAUUUUCGGCGGAUGCUUCCAAA [A6G C16U G32C G41U C68U] | < 1e-05 | < 1e-05 | < 1e-05 | < 1e-05 | 
5 | AUAAAGGCGCCACAACUACAGAAAUGUAGUUGACGAGGAGGAGGUUUAUCGAAUUUUCGGCGGAUGCCUCCAAA [A6G G13C] | < 1e-05 | < 1e-05 | < 1e-05 | < 1e-05 | < 1e-05
6 | AUAAAGGCGCCAGAACUACAGAAAUGUAGUUGACGAGGAGGAGGUUUAUCGGAUUUUCGGCGGAUGCCUCCAAA [A6G A52G] | < 1e-05 |  |  |  | < 1e-05
7 | AUAAAGGCGCCAGAACUACAGAAAUGUAGUUGACGAGGAGGAGGUUUAUCGACUUGUCGGCGGAUGCCUCCAAA [A6G A53C U56G] | < 1e-05 |  |  |  | 
8 | AUAAAGGCACCAGAACUACAGAAAUGUAGUUGACGAGAAGAAGGUUUAUCGAAUUUACGGCGGAUGCCUCCAAA [A6G G9A G38A G41A U57A] | < 1e-05 |  | < 1e-05 | < 1e-05 | < 1e-05
9 | AUAAAGGCGCCAGAACUACAGAAAUGUAGUUAACGAGGAGGAGGUUUAGCGAAUAUUCGGCGGAUGCCUCCAAA [A6G G32A U49G U55A] | < 1e-05 | < 1e-05 |  |  | 
10 | AUAAAGGCGCCAGAACUACAGAAAUGUAGUUGACGAGGAGGAGGUUUAUGGAAUUUUGGGCGGAUGCCUCCAAA [A6G C50G C58G] | 0.000111 ± 2.7e-05 |  |  |  | 0.000451 ± 0.0001
11 | AUAAAGGCGUCAGAACUACAGAAAUGUAGUUGACGAGGGGGAGGUUUAUCGAAUUUUAGGCGGAUGCCUCCAAA [A6G C10U A39G C58A] | < 1e-05 | < 1e-05 |  | < 1e-05 | 
12 | AUAAAGGCGCCAGAACUACAGAAAUGUAGUUGACGAGGAGGAGGUUUAUGGAAUUUUCGGCGGAUGCCUCCAAA [A6G C50G] | 0.000151 ± 3.1e-05 | 3.84e-05 ± 1.3e-05 | 0.000503 ± 0.00012 | 0.000106 ± 3.4e-05 | 9.76e-05 ± 3.1e-05
13 | AUAAAGGCGCCAGAACUACAGAAAUGUAGUUGACGAGGAGGAGGUUUAUCGAAUUUUAGGCGGAUGGCUCCAAA [A6G C58A C67G] | 0.000658 ± 0.00021 | 0.000123 ± 3.5e-05 |  |  | 
14 | AUAAAGGCGCUAGAAAUACAGAAAUGUAGUUGACGAGGAGGAGGUUUAUCGAAUUUUCGGCGGGUGCCUCCAAA [A6G C11U C16A A64G] | < 1e-05 | < 1e-05 | < 1e-05 |  | < 1e-05
15 | AUAAAGGCGUCAGAACUACAGAAAUGUAGUUGACGAGGUGGAGGUUUAUCGAAUUUUCGGCGGAUGCCUCCAAA [A6G C10U A39U] | < 1e-05 | < 1e-05 |  | < 1e-05 | < 1e-05
16 | AUAAAGGCGCCAGAACUACAGAAAUGUAGUUGACGAGGAGGAGGUUUAUAGAAUUUUCGGCGGAGGCCUCCAAA [A6G C50A U65G] | < 1e-05 |  |  |  | 
17 | AUAAAGGCGGCAGAACUACAGAAAUGUAGUGGACGAGGAGGAGGUUUAUCGAAUAUUCGGCGGAUGCCUCCAAA [A6G C10G U31G U55A] | < 1e-05 |  |  |  | 
18 | AUAAAGGCGCUAGAACUACAGAAAUGUAGUUGUCGAGGAGGAGGUUUAUCGAAUUUUCGUCGGAUGCCUCCAAA [A6G C11U A33U G60U] | < 1e-05 | < 1e-05 | < 1e-05 | < 1e-05 | 
19 | AUAAAGGGGCCAGAACUACAGAAAUGUAGUUGGCGAGGAGGAGGUUUUUCGAAUUUUUGGCGGUUGCCUACAAA [A6G C8G A33G A48U C58U A64U C70A] | 3.84e-05 ± 1.7e-05 | 0.000104 ± 3e-05 |  |  | 
20 | AUAAAGGCACCAGAACUACAGAAAUGUAGUUGACGAGGAGGAGAUUUAUCGAAUUUUCGGCGGAUGCCUCAAAA [A6G G9A G44A C71A] | < 1e-05 | < 1e-05 |  | < 1e-05 | 
21 | AUAAAGGCGCCAGAACUACAGAAAUGUAGUUGACGAGGAGGAGGUUUAUCGAAUUUUCGGAGGAUGCCUCCAAA [A6G C61A] | < 1e-05 | < 1e-05 |  | < 1e-05 | 
22 | AUAAAGGCGCCAGAACUACAGAAAUGUAGUUGACGAGGAGGAGGUUUAUCGAAUUUUCGGUGGAUGCCUCCAAA [A6G C61U] | < 1e-05 | < 1e-05 | < 1e-05 | < 1e-05 | < 1e-05
23 | AUAAAGGCGCCAGAACUACAGAAAUGUAGUUGAAGAGGAGGAGGUUUAUCGAAUUUUCGGCGGAUGCCUCCAAA [A6G C34A] | < 1e-05 | < 1e-05 | < 1e-05 | < 1e-05 | < 1e-05
24 | AUAAAGGCGCCAGAAGUACAGAAAUGUAGUUGACGAGGAGGAGGUUUAUCGAAUUUUCGGCGGAUGCCUCCAAA [A6G C16G] | < 1e-05 | 3.38e-05 ± 8.1e-06 | < 1e-05 |  | < 1e-05
25 | AUAAAGGCGCCAGAACUACAGAAAUGUAGUUGACGAGGAGGAGGUUUAUCGAAUUUUGGGUGGAUGCCUCCAAA [A6G C58G C61U] | < 1e-05 | < 1e-05 |  |  | 
26 | AUAAAGGCGCCAGAAUUACAGAAAUGUAGAUGACGAGGAGGAUGUUUAUCGAAUUUUCGGCUGAUGCCUACAAA [A6G C16U U30A G43U G62U C70A] | < 1e-05 | < 1e-05 |  |  | 
